From patent publication US20250147035A1, “METHODS FOR DETECTION OF POST-TRANSLATIONAL MODIFICATIONS” (Quantum-Si Incorporated, priority 2023, published 2025) come the findings set out here.

Like-named read-outs stand apart in the source and are kept apart here. Primed or numbered codes have the meaning given here. Where no end group is shown, it is not given here. [ ]: non-standard residue; d: D form. pT = C[C@@H](OP(=O)(O)O)[C@H](N)C(=O)O; pS = N[C@@H](COP(=O)(O)O)C(=O)O; Biotin′ = not defined here

Assay [1] addresses T1, p…-Biotin.
T1 sequence (peptide, phosphothreonine at 1; C-terminal Biotin): TAKLDEESILKQ
In words: Octet (BLI), fixed reagent concentration. A general note: In BLI a coated tip is dipped into the sample, and binding shifts an interference pattern.

The next assay deals with T2, …-Biotin.
T2 sequence (peptide, C-terminal Biotin): SAKLDEESILKQ
In words: Octet (BLI), fixed reagent concentration.

The next assay addresses EFLN-pT-RFYK. In words: Octet (BLI), sensors coated with peptide.
Assay [2] concerns the target pT-…. Description: Octet (BLI), sensors coated with peptide.
The target in assay [3] is T3, p…-Biotin.
T3 sequence (peptide, phosphoserine at 1; C-terminal Biotin): SAKLDEESILKQ
Description: Octet (BLI), fixed reagent concentration. The source holds these as a separate data set.

Assay [4] concerns pSAKLDEESILKQ-Biotin. In words: Octet binding assay of PTM-specific affinity reagent candidates, pSA peptide. The settings on record: fixed concentration of reagent. An excerpt: (§1) This Example characterizes an exemplary phosphorylated threonine recognizer for use in methods of the disclosure.
In a further assay the test system is SAKLDEESILKQ-Biotin. Description: Octet binding assay of PTM-specific affinity reagent candidates, SA control peptide. Also noted: unit not given here. The following applies: fixed concentration of reagent.
Excerpt: as §1

For assay [5], the target named is p…. Description: Octet (BLI), sensors coated with peptide.
The next assay deals with QRFpYLAYPDDD-FITC. In words: bulk fluorescence polarization, 0.5 µM PM49, FITC-labeled peptide. On the technique in general: In fluorescence polarisation assays a small probe gives low polarisation when free and higher when bound to something large.
The target in assay [6] is T4, pSAKLDEESILKQ-Biotin.
T4 peptide: [pS]AKLDEESILKQ-{Biotin′}
In words: Octet (BLI), fixed reagent concentration.
Description: (§3) Octet binding assays at a fixed concentration of PTM-specific affinity reagent candidates were evaluated for binding with phospho-threonine, phospho-serine containing peptides (p[sequence]-Biotin; p[sequence]-Biotin; p[sequence]-Biotin), and control peptides without modifications ([sequence]-Biotin; [sequence]-Biotin).

A further assay addresses T5, pTAKLDEESILKQ-Biotin.
T5 peptide: [pT]AKLDEESILKQ-{Biotin′}
In words: Octet (BLI), fixed reagent concentration.

The target in the next assay is T6, TAKLDEESILKQ-Biotin.
T6 peptide: TAKLDEESILKQ-{Biotin′}
In words: Octet (BLI), fixed reagent concentration.

Assay [7] addresses p…-Biotin. Description: Octet (BLI), fixed reagent concentration. The source holds these as a separate data set.
Assay [8] concerns p[…]-Biotin. In words: Octet binding assay of PTM-specific affinity reagent candidates, pTQR peptide. The following applies: fixed concentration of reagent. As to the method:
This Example characterizes an exemplary phosphorylated threonine recognizer for use in methods of the disclosure. Octet binding assays at a fixed concentration of PTM-specific affinity reagent candidates were evaluated for binding with phospho-threonine, phospho-serine containing peptides (p[…]-Biotin; p[…]-Biotin; p[…]-Biotin), and control peptides without modifications ([…]-Biotin; […]-Biotin).

The test system of assay [9] is p[…]-Biotin. Description: Octet binding assay of PTM-specific affinity reagent candidates, pTA peptide. The settings on record: fixed concentration of reagent.
Excerpt: as §1

For the next assay, the system named is LAQ-pY-LAYPDDDK
Description: On-chip fluorescence signature of PTM-specific affinity reagent binding before sequencing (Example 1). The settings on record: polypeptide with PTM, collected for 30 minutes. The method, then: (§2) A control polypeptide ([…]) and a model polypeptide comprising a phospho-tyrosine (LAQ-pY-[…]) were tested in this Example. Each polypeptide was first immobilized onto independent surfaces of a chip. A post-translational modification-specific (PTM-specific) affinity reagent that binds to phospho-tyrosine (PS33 (SEQ ID NO: 35)) and comprised a fluorescent label was then added to the chip and allowed to contact the polypeptides. […] The chip was then washed to remove the PTM-specific affinity reagent. A protein sequencing analysis of the polypeptides was then performed. A mixture of labeled terminal amino acid recognition molecules was added to the chip and allowed to incubate for 15 minutes. After 15 minutes, a mixture of cleaving reagents (a mixture of aminopeptidases) was added to the chip. During these steps, a series of signal pulses indicative of association of the one or more terminal amino acid recognition molecules with successive amino acids exposed at a terminus of each polypeptide were collected while each polypeptide was being degraded.

The next assay deals with LAQYLAYPDDDK
In words: On-chip fluorescence signature of PTM-specific affinity reagent binding before sequencing (Example 1), control polypeptide. The following applies: polypeptide without PTM, collected for 30 minutes. The method, then: as §2

Description for pTAKLDEESILKQ-Biotin: as §3

Turning to “PM12 (Mycobacterium tuberculosis/FhaA) (from UniProt P71590 430-527)”, the Octet binding assay response in the assay with p…-Biotin [1] is 7.1; in the assay with …-Biotin, 0.6. In addition, the Octet shift with EFLN-pT-RFYK came out at 6.8; in assay [2] it was 4.4.

For the molecule “PM06 (Human/14-3-3 protein zeta/delta) (from UniProt P63103 1-245)”, the Octet binding assay response in the assay with p…-Biotin [3] and with …-Biotin was 0.1 in each case.

In the case of “PM06: Human/14-3-3 protein zeta/delta, SEQ ID NO: 6”, the “Octet binding assay response, pSA” value in the assay with pSAKLDEESILKQ-Biotin [4] was found to be 0.1. Moreover, in the assay on SAKLDEESILKQ-Biotin (SA = SAKLDEESILKQ-Biotin (control)), the “Octet binding assay response, SA” value is 0.1.

In the case of “PM49 (ABCAM® Biotin Anti-Phosphotyrosine antibody [EPR16871])”, the Octet shift in assay [5] was found to be 10.2. The fold tighter binding affinity against an N-terminal phospho-tyrosine in the assay with QRFpYLAYPDDD-FITC came to 2 fold.

B1: PM02 (Human/14-3-3 protein theta) (other)
chain: MEKTELIQKAKLAEQAERYDDMATCMKAVTEQGAELSNEERNLLSVAYKNVVGGRRSAWRVISSIEQKTDTSDKKLQLIKDYREKVESELRSICTTVLELLDKYLIANATNPESKVFYLKMKGDYFRYLAEVACGDDRKQTIDNSQGAYQEAFDISKKEMQPTHPIRLGLALNFSVFYYEILNNPELACTLAKTAFDEAIAELDTLNEDSYKDSTLIMQLLRDNLTLWTSDSAGEECDAAEGAEN
B1: the Octet binding assay response was 0.3 with …-Biotin; 0.3 in the assay with pSAKLDEESILKQ-Biotin [6]; 0.3 with pTAKLDEESILKQ-Biotin; 0.3 in the assay with TAKLDEESILKQ-Biotin; 0.5 in the assay with p…-Biotin [7].

B2: PM13 (Saccharomyces cerevisiae/FHA1) (other)
chain: MENITQPTQQSTQATQRFLIEKFSQEQIGENIVCRVICTTGQIPIRDLSADISQVLKEKRSIKKVWTFGRNPACDYHLGNISRLSNKHFQILLGEDGNLLLNDISTNGTWLNGQKVEKNSNQLLSQGDEITVGVGVESDILSLVIFINDKFKQCLEQNKVDRIRSNLKNTSKIASPGLTSSTASSMVANKTGIFKDFSIIDEVVGQGAFATVKKAIERTTGKTFAVKIISKRKVIGNMDGVTRELEVLQKLNHPRIVRLKGFYEDTESYYMVMEFVSGG
Turning to B2, the “Octet binding assay response, SA” value with SAKLDEESILKQ-Biotin (SA = […]-Biotin (control)) amounted to 0.2. Moreover, the “Octet binding assay response, pTQR” value in the assay on p[…]-Biotin [8] stood at 3.2. The “Octet binding assay response, pTA” value with p[…]-Biotin [9] is 1.8. The Octet binding assay response turned out to be 1.8 with p…-Biotin [1] (pTA phosphothreonine peptide); 3.2 in the assay with p…-Biotin [1] (pTQR phosphothreonine peptide); 0.2 with …-Biotin; 0.3 in the assay with pSAKLDEESILKQ-Biotin [6]; 0.3 with TAKLDEESILKQ-Biotin.

B3: PS33: SH domanin Fyn Triple mutant, SEQ ID NO: 35; PTM-specific affinity reagent that specifically binds to phospho-tyrosine (protein)
chain: MGAMDSIQAEEWYFGKLGRKDAERQLLSFGNPRGTFLIRESETVKGAYALSIRDWDDMKGDHVKHYLIRKLDNGGYYITTRAQFETLQQLVQHYSERAAGLSSRLVVPSHK
For B3, the “fluorescence signature representative of binding interaction(s)” value in the assay with LAQ-pY-LAYPDDDK is listed as “strong fluorescence signature”; in the assay with LAQYLAYPDDDK, “no fluorescence signature”.

B4: PM14 (Saccharomyces cerevisiae/RAD53) (other)
chain: MEDQDGKIQGFKIPAHAPIRYTQPKSIEAETREQKLLHSNNTENVKSSKKKGNGRFLTLKPLPDSIIQESLEIQQGVNPFFIGRSEDCNCKIEDNRLSRVHCFIFKKRHAVGKSMYESPAQGLDDIWYCHTGTNVSYLNNNRMIQGTKFLLQDGDEIKIIWDKNNKFVIGFKVEINDTTGLFNEGLGMLQEQRVVLKQTAEEKDLVKKLTQMMAAQRANQPSASSSSMSAKKPPVSDTNNNGNNSVLNDLVESPINANTGNILKRIHSVSLSQSQIDPSKKVKRAKLDQTSKGPENLQFS
Regarding B4, the “Octet binding assay response, pTQR” value in the assay on p[…]-Biotin [8] worked out at 1.0. Further, the “Octet binding assay response, pTA” value in the assay with p[…]-Biotin [9] amounted to 1.1. The Octet binding assay response in the assay with p…-Biotin [1] (pTA phosphothreonine peptide) turned out to be 1.1; with p…-Biotin [1] (pTQR phosphothreonine peptide), 1; with …-Biotin it was 0.2; in the assay with pSAKLDEESILKQ-Biotin [6], 0.2; in the assay with TAKLDEESILKQ-Biotin, 0.1.

B5: PM05 (Human/14-3-3 protein beta/alpha) (other)
chain: MTMDKSELVQKAKLAEQAERYDDMAAAMKAVTEQGHELSNEERNLLSVAYKNVVGARRSSWRVISSIEQKTERNEKKQQMGKEYREKIEAELQDICNDVLELLDKYLIPNATQPESKVFYLKMKGDYFRYLSEVASGDNKQTTVSNSQQAYQEAFEISKKEMQPTHPIRLGLALNFSVFYYEILNSPEKACSLAKTAFDEAIAELDTLNEESYKDSTLIMQLLRDNLTLWTSENQGDEGDAGEGEN
As for B5, the Octet binding assay response in the assay with …-Biotin, in the assay with pSAKLDEESILKQ-Biotin [6], with pTAKLDEESILKQ-Biotin, with TAKLDEESILKQ-Biotin and in the assay with p…-Biotin [7] was 0.2 throughout.

B6: PM03 (Human/14-3-3 protein eta) (other)
chain: MGDREQLLQRARLAEQAERYDDMASAMKAVTELNEPLSNEDRNLLSVAYKNVVGARRSSWRVISSIEQKTMADGNEKKLEKVKAYREKIEKELETVCNDVLSLLDKFLIKNCNDFQYESKVFYLKMKGDYYRYLAEVASGEKKNSVVEASEAAYKEAFEISKEQMQPTHPIRLGLALNFSVFYYEIQNAPEQACLLAKQAFDDAIAELDTLNEDSYKDSTLIMQLLRDNLTLWTSDQQDEEAGEGN
On to B6, for which the Octet binding assay response with …-Biotin stood at 0.3; with pSAKLDEESILKQ-Biotin [6], 0.2; with pTAKLDEESILKQ-Biotin it was 0.2; with TAKLDEESILKQ-Biotin it was 0.2; in the assay with p…-Biotin [7] it was 0.4.

B7: PM18 (Human/MINT) (other)
chain: MVDMVQLLKKYPIVWQGLLALKNDTAAVQLHFVSGNNVLAHRSLPLSEGGPPLRIAQRMRLEATQLEGVARRMTVETDYCLLLALPCGRDQEDVVSQTESLKAAFITYLQAKQAAGIINVPNPGSNQPAYVLQIFPPCEFSESHLSRLAPDLLASISNISPHLMIVIASV
For B7, in the assay with SAKLDEESILKQ-Biotin (SA = […]-Biotin (control)), the “Octet binding assay response, SA” value is listed as 0.9. For the same molecule, the “Octet binding assay response, pTQR” value in the assay with p[…]-Biotin [8] is reported as 1.6. In addition, in the assay with p[…]-Biotin [9], the “Octet binding assay response, pTA” value is listed as 0.7. Further, the Octet binding assay response amounted to 0.6 with p…-Biotin [3]; 0.7 in the assay with p…-Biotin [1] (pTA phosphothreonine peptide); 1.6 with p…-Biotin [1] (pTQR phosphothreonine peptide); 0.9 in the assay with …-Biotin; 0.6 with TAKLDEESILKQ-Biotin.
